Reference: patent US20040018971A1 (published 2004)

B1: HER2/neu A02 supermotif peptide, position 449, 10 amino acids (peptide)
peptide: GISWLGLRSL
notes: Synthetic peptide
B2: HER2/neu A02 supermotif peptide, position 262, 10 amino acids (peptide)
peptide: GICELHCPAL
notes: Synthetic peptide
B3: HER2/neu A02 supermotif peptide, position 787, 10 amino acids (peptide)
peptide: GICLTSTVQL
notes: Synthetic peptide
B4: HER2/neu A02 supermotif peptide, position 660, 10 amino acids (peptide)
peptide: GILLVVVLGV
notes: Synthetic peptide
B5: HER2/neu A02 supermotif peptide, position 1164, 10 amino acids (peptide)
peptide: GATLERPKTL
notes: Synthetic peptide
B6: HER2/neu A02 supermotif peptide, position 439, 10 amino acids (peptide)
peptide: GAYSLTLQGL
notes: Synthetic peptide
B7: HER2/neu A02 supermotif peptide, position 1189, 9 amino acids (peptide)
peptide: GAVENPEYL
notes: Synthetic peptide
B8: HER2/neu A02 supermotif peptide, position 131, 10 amino acids (peptide)
peptide: GASPGGLREL
notes: Synthetic peptide
B9: HER2/neu A02 supermotif peptide, position 925, 10 amino acids (peptide)
peptide: GIPAREIPDL
notes: Synthetic peptide
B10: HER2/neu peptide, position 832, 9 amino acids (peptide)
peptide: GMSYLEDVR
B11: HER2/neu peptide, position 704, 10 amino acids (peptide)
peptide: GAMPNQAQMR
B12: HER2/neu peptide, position 327, 10 amino acids (peptide)
peptide: GTQRCEKCSK
B13: HER2/neu peptide, position 1038, 9 amino acids (peptide)
peptide: GAGGMVHHR
B14: HER2/neu peptide, position 776, 9 amino acids (peptide)
peptide: GVGSPYVSR
B15: HER2/neu peptide, position 447, 10 amino acids (peptide)
peptide: GLGISWLGLR
B16: HER2/neu peptide, position 727, 10 amino acids (peptide)
peptide: GSGAFGTVYK
B17: HER2/neu peptide, position 1213, 9 amino acids (peptide)
peptide: FSPAFDNLY
B18: HER2/neu peptide, position 727, 9 amino acids (peptide)
peptide: GSGAFGTVY
B19: HER2/neu peptide, position 346, 9 amino acids (peptide)
peptide: GMEHLREVR
B20: HER2/neu peptide, position 976, 10 amino acids (peptide)
peptide: FSRMARDPQR
B21: HER2/neu peptide, position 508, 10 amino acids (peptide)
peptide: GLACHQLCAR
B22: HER2/neu peptide, position 549, 10 amino acids (peptide)
peptide: GLPREYVNAR
B23: HER2/neu peptide, position 668, 9 amino acids (peptide)
peptide: GVVFGILIK
notes: T0001 prints T at residue 673
B24: HER2/neu peptide, position 878, 10 amino acids (peptide)
peptide: HADGGKVPIK
B25: HER2/neu peptide, position 672, 10 amino acids (peptide)
peptide: GILIKRRQQK
B26: HER2/neu peptide, position 401, 9 amino acids (peptide)
peptide: ETLEEITGY
B27: HER2/neu peptide, position 874, 10 amino acids (peptide)
peptide: ETEYHADGGK
B28: HER2/neu peptide, position 1188, 9 amino acids (peptide)
peptide: GGAVENPEY
B29: HER2/neu peptide, position 280, 9 amino acids (peptide)
peptide: ESMPNPEGR
B30: HER2/neu peptide, position 292, 10 amino acids (peptide)
peptide: GASCVTACPY
B31: HER2/neu peptide, position 914, 10 amino acids (peptide)
peptide: ELMTFGAKPY
B32: HER2/neu peptide, position 321, 10 amino acids (peptide)
peptide: EVTAEDGTQR
B33: HER2/neu peptide, position 265, 10 amino acids (peptide)
peptide: ELHCPALVTY
B34: Her2/neu.478.V2K10 (peptide)
peptide: HVVPWDQLFK
notes: synthetic analog peptide
B35: HER2/neu peptide, position 713, 9 amino acids (peptide)
peptide: RILKETELR
notes: Synthetic A3 supermotif peptide
B36: HER2/neu peptide, position 90, 9 amino acids (peptide)
peptide: QVRQVPLQR
notes: as for B35
B37: HER2/neu peptide, position 360, 9 amino acids (peptide)
peptide: NIQEFAGCK
notes: as for B35
B38: HER2/neu peptide, position 479, 9 amino acids (peptide)
peptide: TVPWDQLFR
notes: as for B35
B39: HER2/neu peptide, position 208, 10 amino acids (peptide)
peptide: SSEDCQSLTR
notes: as for B35
B40: HER2/neu peptide, position 491, 9 amino acids (peptide)
peptide: QALLHTANR
notes: as for B35
B41: HER2/neu peptide, position 84, 9 amino acids (peptide)
peptide: VLIAHNQVR
notes: as for B35
B42: HER2/neu peptide, position 360, 10 amino acids (peptide)
peptide: NIQEFAGCKK
notes: as for B35
B43: HER2/neu peptide, position 95, 9 amino acids (peptide)
peptide: PLQRLRIVR
notes: as for B35
B44: HER2/neu peptide, position 182, 9 amino acids (peptide)
peptide: TLIDTNRSR
notes: as for B35
B45: HER2/neu peptide, position 1162, 10 amino acids (peptide)
peptide: PAGATLERPK
notes: as for B35
B46: HER2/neu peptide, position 597, 9 amino acids (peptide)
peptide: VARCPSGVK
notes: as for B35
B47: HER2/neu peptide, position 1102, 10 amino acids (peptide)
peptide: PTHDPSPLQR
B48: Her2/neu.65 (10-mer) (peptide)
peptide: LPTNASLSFL
notes: native HER2/neu peptide from position 65
B49: Her2/neu.415.I8 (peptide)
peptide: WPDSLPDI
notes: analog peptide
B50: Her2/neu.605 (peptide)
peptide: KPDLSYMPI
notes: native HER2/neu peptide from position 605
B51: Her2/neu.649.I9 (peptide)
peptide: SPLTSIISI
notes: 9-mer analog of the HER2/neu peptide starting at position 649
B52: Her2/neu.760.F1, 8-mer (peptide)
peptide: FPKANKEI
notes: 8-mer analog of the HER2/neu peptide starting at position 760; same label as the 9-mer in r54
B53: Her2/neu.698.F1I9 (peptide)
peptide: FPLTPSGAI
notes: 9-mer analog of the HER2/neu peptide starting at position 698
B54: Her2/neu.706.F1I10 (peptide)
peptide: FPNQAQMRII
notes: 10-mer analog of the HER2/neu peptide starting at position 706
B55: Her2/neu.760.F1I9 (peptide)
peptide: FPKANKEII
notes: 9-mer analog of the HER2/neu peptide starting at position 760
B56: Her2/neu.642.F1I10 (peptide)
peptide: FPAEQRASPI
notes: 10-mer analog of the HER2/neu peptide starting at position 642
B57: Her2/neu.649, 10-mer (peptide)
peptide: SPLTSIISAV
notes: 10-mer native HER2/neu peptide starting at position 649

molecular target: T1, HLA-A*0201 (human); experiment: competition with 125I-labelled standard peptide 941.01 ([..]) on purified HLA, gel filtration
T1 construct: also called HLA-A2.1

| Binder | relative binding ratio |
| --- | --- |
| B1 | 0.0003 ratio (IC50 of standard peptide / IC50 of test peptide) |
| B2 | 0.0005 ratio (IC50 of standard peptide / IC50 of test peptide) |
| B3 | 0.0004 ratio (IC50 of standard peptide / IC50 of test peptide) |
| B4 | 0.0007 ratio (IC50 of standard peptide / IC50 of test peptide) |
| B5 | 0.0002 ratio (IC50 of standard peptide / IC50 of test peptide) |
| B6 | 0.003 ratio (IC50 of standard peptide / IC50 of test peptide) |
| B7 | 0.0002 ratio (IC50 of standard peptide / IC50 of test peptide) |
| B8 | 0.0001 ratio (IC50 of standard peptide / IC50 of test peptide) |
| B9 | 0.0001 ratio (IC50 of standard peptide / IC50 of test peptide) |

molecular target: HLA-A*1101 (human); experiment: inhibition of 125I-labelled probe peptide binding to purified HLA-A*1101, gel filtration

| Binder | relative binding ratio (IC50 of standard peptide / IC50 of test peptide) [relative binding ratio] |
| --- | --- |
| B10 | 0.0002 |
| B11 | 0.0041 |
| B12 | 0.61 |
| B13 | 0.0043 |
| B14 | 0.0066 |
| B15 | 0.0001 |
| B16 | 0.13 |
| B17 | 0.0002 |
| B18 | 0.0001 |
| B19 | -0.0002 |
| B20 | 0.001 |
| B21 | 0.0001 |
| B22 | 0.0003 |
| B23 | 0.089 |
| B24 | 0.0008 |
| B25 | 0.0014 |
| B26 | 0.0002 |
| B27 | 0.0001 |
| B28 | 0.0001 |
| B29 | -0.0002 |
| B30 | 0.0001 |
| B31 | 0.0002 |
| B32 | 0.0001 |
| B33 | 0.0002 |

molecular target: HLA-A*6801 (human); experiment: inhibition of 125I probe peptide binding to purified HLA

| Binder | IC50 [nM] |
| --- | --- |
| B34 | 8.9 |

molecular target: HLA-A*0301 (human); experiment: as above

| Binder | IC50 [nM] |
| --- | --- |
| B34 | 180 |

molecular target: HLA-A*0301 (human); experiment: inhibition of 125I-labelled standard peptide binding to purified HLA, gel filtration

| Binder | relative binding ratio |
| --- | --- |
| B35 | 0.0007 ratio (IC50 of standard peptide / IC50 of test peptide) |
| B36 | 0.0029 ratio (IC50 of standard peptide / IC50 of test peptide) |
| B37 | 0.0002 ratio (IC50 of standard peptide / IC50 of test peptide) |
| B38 | 0.0006 ratio (IC50 of standard peptide / IC50 of test peptide) |
| B39 | -0.0002 ratio (IC50 of standard peptide / IC50 of test peptide) |
| B40 | 0.0046 ratio (IC50 of standard peptide / IC50 of test peptide) |
| B41 | 0.0033 ratio (IC50 of standard peptide / IC50 of test peptide) |
| B42 | 0.0003 ratio (IC50 of standard peptide / IC50 of test peptide) |
| B43 | 0.0002 ratio (IC50 of standard peptide / IC50 of test peptide) |
| B44 | 0.0004 ratio (IC50 of standard peptide / IC50 of test peptide) |
| B45 | -0.0002 ratio (IC50 of standard peptide / IC50 of test peptide) |
| B46 | 0.01 ratio (IC50 of standard peptide / IC50 of test peptide) |
| B47 | 0.0003 ratio (IC50 of standard peptide / IC50 of test peptide) |

molecular target: HLA-A*1101 (human); experiment: as above

| Binder | relative binding ratio |
| --- | --- |
| B35 | 0.0038 ratio (IC50 of standard peptide / IC50 of test peptide) |
| B36 | 0.0005 ratio (IC50 of standard peptide / IC50 of test peptide) |
| B37 | 0.0036 ratio (IC50 of standard peptide / IC50 of test peptide) |
| B38 | 0.0072 ratio (IC50 of standard peptide / IC50 of test peptide) |
| B39 | 0.002 ratio (IC50 of standard peptide / IC50 of test peptide) |
| B40 | 0.001 ratio (IC50 of standard peptide / IC50 of test peptide) |
| B41 | 0.0007 ratio (IC50 of standard peptide / IC50 of test peptide) |
| B42 | 0.0056 ratio (IC50 of standard peptide / IC50 of test peptide) |
| B43 | 0.0001 ratio (IC50 of standard peptide / IC50 of test peptide) |
| B44 | 0.0005 ratio (IC50 of standard peptide / IC50 of test peptide) |
| B45 | -0.0002 ratio (IC50 of standard peptide / IC50 of test peptide) |
| B46 | -0.0002 ratio (IC50 of standard peptide / IC50 of test peptide) |
| B47 | 0.0001 ratio (IC50 of standard peptide / IC50 of test peptide) |

molecular target: HLA-B*0702 (human); experiment: competition with 125I probe peptide, purified HLA

| Binder | IC50 [nM] |
| --- | --- |
| B48 | 290 |
| B49 | 71 |
| B50 | 76 |

molecular target: HLA-B*5101 (human); experiment: competition with 125I probe peptide, purified HLA

| Binder | IC50 [nM] |
| --- | --- |
| B48 | 2500 |
| B49 | 5000 |
| B50 | 2500 |

molecular target: HLA-B*5401 (human); experiment: competition vs 125I-labeled standard peptide, purified HLA

| Binder | IC50 [nM] |
| --- | --- |
| B51 | 217 |
| B52 | 3120 |
| B53 | 1.9 |
| B54 | 59 |
| B55 | 39 |
| B56 | 56 |
| B57 | 667 |

molecular target: HLA-B*0702 (human); experiment: as above

| Binder | IC50 [nM] |
| --- | --- |
| B51 | 86 |
| B52 | 0.16 |
| B53 | 0.9 |
| B54 | 290 |
| B55 | 8.5 |
| B56 | 3.1 |
| B57 | 61 |

molecular target: HLA-B*5101 (human); experiment: as above

| Binder | IC50 [nM] |
| --- | --- |
| B51 | 275 |
| B52 | 2500 |
| B53 | 9.2 |
| B54 | 76 |
| B55 | 55 |
| B56 | 98 |

molecular target: HLA-B*5301 (human); experiment: as above

| Binder | IC50 [nM] |
| --- | --- |
| B51 | 3440 |
| B54 | 490 |
| B55 | 7150 |
| B56 | 4900 |
